From patent US20190144559A1 (Daiichi Sankyo, published 2019)

Key:
[1] = biological target: T1, Recombinant Human TROP-2 Fc chimera (human, UniProt P09758 27-274, limits assumed); assay: SPR Biacore 3000, purified antibody captured on anti-human IgG (Fab), antigen as analyte, bivalent model
T1 construct: Used as the analyte in Biacore; also called antigen (Recombinant Human TROP-2 Fc chimera); not shown: Fc part and any linker of the chimera are not described
T1 sequence (looked up): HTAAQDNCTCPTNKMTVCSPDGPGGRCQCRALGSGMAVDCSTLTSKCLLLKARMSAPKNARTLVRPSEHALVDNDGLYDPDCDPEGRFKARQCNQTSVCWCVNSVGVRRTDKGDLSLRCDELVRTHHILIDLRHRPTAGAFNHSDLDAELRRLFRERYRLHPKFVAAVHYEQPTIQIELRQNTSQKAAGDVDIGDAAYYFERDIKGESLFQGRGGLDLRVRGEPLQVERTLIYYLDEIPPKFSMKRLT

[2] = biological target: T1, Recombinant Human TROP-2 Fc chimera; assay: SPR Biacore 3000, antibody from culture supernatant captured on anti-human IgG (Fab), antigen as analyte, bivalent model

Binder	Kd [1] [nM]	Kd [2] [nM]
hRS7 antibody (antibody, V domains shown) VH: QVQLQQSGSELKKPGASVKVSCKASGYTFTNYGMNWVKQAPGQGLKWMGWINTYTGEPTYTDDFKGRFAFSLDTSVSTAYLQISSLKADDTAVYFCARGGFGSSYWYFDVWGQGSLVTVSS VL: DIQLTQSPSSLSASVGDRVSITCKASQDVSIAVAWYQQKPGKAPKLLIYSASYRYTGVPDRFSGSGSGTDFTLTISSLQPEDFAVYYCQQHYITPLTFGAGTKVEIKR	0.3	
hTINA1-H2L1 (antibody, human IgG1, kappa, Human IgG1/kappa; also called hTINA1 antibody) heavy: not shown light: DIQMTQSPSSLSASVGDRVTITCKASQDVSTAVAWYQQKPGKAPKLLIYSASYRYTGVPSRFSGSGSGTDFTLTISSLQPEDFAVYYCQQHYITPLTFGQGTKLEIKRTVAAPSVFIFPPSDEQLKSGTASVVCLLNNFYPREAKVQWKVDNALQSGNSQESVTEQDSKDSTYSLSSTLTLSKADYEKHKVYACEVTHQGLSSPVTKSFNRGEC	30	69
hTINA1-H2L2 (antibody, human IgG1, kappa, Human IgG1/kappa; also called hTINA1 antibody) heavy: not shown light: DIVMTQSPSSLSASVGDRVTITCKASQDVSTAVAWYQQKPGKAPKLLIYSASYRYTGVPSRFSGSGSGTDFTLTISSLQPEDFAVYYCQQHYITPLTFGQGTKLEIKRTVAAPSVFIFPPSDEQLKSGTASVVCLLNNFYPREAKVQWKVDNALQSGNSQESVTEQDSKDSTYSLSSTLTLSKADYEKHKVYACEVTHQGLSSPVTKSFNRGEC	27	71
hTINA1-H1L1 (antibody, human IgG1, kappa, V domains shown, Human IgG1/kappa; also called hTINA1 antibody; humanized TINA1) VH: QVQLVQSGAEVKKPGASVKVSCKASGYTFTTAGMQWVRQAPGQGLEWMGWINTHSGVPKYAEDFKGRVTISADTSTSTAYLQLSSLKSEDTAVYYCARSGFGSSYWYFDVWGQGTLVTVSS VL: DIQMTQSPSSLSASVGDRVTITCKASQDVSTAVAWYQQKPGKAPKLLIYSASYRYTGVPSRFSGSGSGTDFTLTISSLQPEDFAVYYCQQHYITPLTFGQGTKLEIKR	27	63
hTINA1-H3L3 (antibody, human IgG1, kappa, V domains shown, Human IgG1/kappa; also called hTINA1 antibody) VH: QIQLVQSGAEVKKPGESVKVSCKASGYTFTTAGMQWVQQMPGKGLEWMGWINTHSGVPKYAEDFKGRVTFSLDTSTSTAYLQLSSLKSEDTAVYYCARSGFGSSYWYFDVWGQGTLVTVSS VL: DIVMTQSPSSLSASVGDRVTITCKASQDVSTAVAWYQQKPGKQPKLLIYSASYRYTGVPSRFSGSGSGTDFTLTISSLQPEDFAVYYCQQHYITPLTFGQGTKLEIKR	15	58
cTINA1 antibody (antibody, human IgG1, V domains shown, Mouse TINA1 variable regions on human IgG1/kappa constant regions; also called human chimeric TINA1 antibody; chimeric TINA1) VH: QIQLVQSGPELKKPGETVRISCKASGYTFTTAGMQWVQKMPGKGLKWIGWINTHSGVPKYAEDFKGRFAFSLETSASTAYLQISNLKNEDTTTYFCARSGFGSSYWYFDVWGAGTAVTVSS VL: DIVMTQSHKFMSTSVGDRVSITCKASQDVSTAVAWYQQKPGQSPKLLIYSASYRYTGVPDRFTGSGSGTAFTFTISSVQAEDLAVYYCQQHYITPLTFGAGTKLELKR		56
